Test results: patent US20170174769A1 (Regeneron, published 2017)

B1: H4H8852P (antibody, V domains shown)
VH: QVQLQESGPGLVKPSETLSLTCTVSGGSISSYYWSWIRQPPGKGLEWIGYIYSSGIIKYNPSLKSRVTISADTSKNQFSLKLSSVTAADTAVYYCARHGIFGVMEYFQRWGQGTLVTVSS
VL: DIQMTQSPSSLSASIGDRVTITCQASQDIGNFLNWYQQKPGKAPTLLIYDASNMETGVPSRFSGSGSGTYFTFTISSLQPEDVATYYCQQYDNLPLTFGGGTKVEIK
notes: human IgG4 Fc (H4H prefix)
B2: H4H8856P (antibody, V domains shown)
VH: QVQLQESGPGLVKPSETLSLTCTVSGGSISSYYWSWIRQPPGKGLEWIAYIYYSGITKYNPSLKSRVTISADTSKNQFSLKLSSVTAADTAVYYCARHGIFGVMEYFQRWGQGTLVTVSS
VL: DIQMTQSPSSLSASIGDRVTITCQASQDISNFLNWYQQKPGKAPTLLIYDVSNMETGVPSRFSGSGYGTDFTLTISSLKPEDIATYYCQQYDNIPLTFGGGTKVEIK
notes: human IgG4 Fc (H4H prefix)
B3: H1M8115N (antibody, V domains shown)
VH: QVQLVQSGAEVKKPGSSVKVSCKASGGTFSTYEISWVRQAPGQGLEWMGGIIPVFGTTHYAQKFQDSVTITTDESTGTAFMELSSLKSEDTAVYYCARGGAGGDNWGQGTLVTVSS
VL: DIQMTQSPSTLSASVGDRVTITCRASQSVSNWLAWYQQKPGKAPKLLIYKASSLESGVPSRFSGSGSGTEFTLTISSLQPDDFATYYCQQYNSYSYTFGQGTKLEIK
notes: H1M Fc prefix (mouse Fc)
B4: H2aM8109N (antibody, V domains shown)
VH: QVQVVESGGGVVQPGRSLRLSCAASGFTFSSYGLHWVRQAPGKGLEWVAVIWHDGSHKYYADSVKGRFTISRDNSKNTLYLQMNSLRAEDTAVYYCARDGIPVAEDYYFYGMDVWGQGTTVTVSS
VL: DIQMTQSPSSLSASVGDRVTITCRASQGIRNDLGWYQQKPGKAPKRLIYAASSLQSGVPSRFSGSGSGTEFTLTISSLQPEDFAIYYCLQHNSLTFGGGTKVEIK
notes: mouse IgG2 Fc (H2aM prefix)
B5: H4H8837P (antibody, V domains shown)
VH: QVQLVESGGGVVQPGRSLRLSCAASGFTFNSYAMHWVRQAPGMGLEWVAVISSDGSNKYYADSVRGRFTVSRDNSKNTLYLQMNSLRSEDTAVYYCAKDGRGYSSFSHFGMDVWGQGTTVTVSS
VL: DIQMTQSPSTLSASVGDRVTITCRASQSIGSWLAWYQQKPGKAPKLLIYKTSSLESGVPSRFSGSGSGTEFTLTISSLQPDDFASYYCQQYNSYSFGQGTKVEIK
notes: human IgG4 Fc (H4H prefix)
B6: H2aM8093N (antibody, V domains shown)
VH: QVQLVQSGAEVKRPGSSVKVSCKASGDTFSTYAISWVRQAPGQGLEWMGGIIPVFGTTNYAQKFQDRVTITTDESTRTAYMELSSLRSEDTAVYYCAGIAGPDYWGQGTLVTVSS
VL: DIQMTQSPSSLSASVGDRVTITCRASQGIRNYLAWFQQKPGKAPKSLIYLATSLQSGVPSKFSGSGSGTDFTLTISSLQPEDFATYYCQQYYSYPWTFGQGTKVEIK
notes: mouse IgG2 Fc (H2aM prefix)

Tests used:
[1] = target: T1, extracellular domain of human FGFR1c expressed with C-terminal V5 and hexahistidine tags (human, UniProt P11362 22-376); assay: SPR, mAb captured, 37 C
T1 construct: also called hFGFR1c-V5-6His
T1 sequence: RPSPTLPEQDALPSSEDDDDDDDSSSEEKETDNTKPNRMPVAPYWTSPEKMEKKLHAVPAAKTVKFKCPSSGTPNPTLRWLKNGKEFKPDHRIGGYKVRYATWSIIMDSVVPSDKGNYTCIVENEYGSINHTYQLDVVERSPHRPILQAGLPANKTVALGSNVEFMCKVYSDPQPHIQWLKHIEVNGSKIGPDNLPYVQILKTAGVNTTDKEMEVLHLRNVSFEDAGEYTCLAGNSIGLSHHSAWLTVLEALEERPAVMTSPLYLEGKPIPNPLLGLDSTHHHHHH
Procedure: (§1) Equilibrium dissociation constants (KD values) for human KLB or human FGFR1c binding to purified anti-KLB/FGFR1c monoclonal antibodies were determined using a real-time surface plasmon resonance biosensor using a Biacore T-200 or 4000 instrument. The Biacore sensor surface was derivatized by amine coupling with either a polyclonal rabbit anti-mouse antibody (GE, # BR-1008-38) or with a monoclonal mouse anti-human Fc antibody (GE, # BR-1008-39) to capture anti-KLB/FGFR1c monoclonal antibodies expressed with either a mouse Fc or a human Fc, respectively. All Biacore binding studies were performed in a buffer composed of 0.01M HEPES pH 7.4, 0.15M NaCl, 3mM EDTA, 0.05% v/v Surfactant P20 (HBST running buffer). […] Association of hKLB-HA-6His or hFGFR1c-V5-6His to the captured monoclonal antibody was monitored for 3.5 to 4 minutes and the dissociation of hKLB-HA-6His or hFGFR1c-V5-6His in HBST running buffer was monitored for 8-12 minutes. All the binding kinetics experiments were performed at 25° C. or 37° C. Kinetic association (kₐ) and dissociation (kd) rate constants were determined by fitting the real-time sensorgrams to a 1:1 binding model using Scrubber 2.0c curve fitting software. Binding dissociation equilibrium constants (KD) and dissociative half-lives (t½) were calculated from the kinetic rate constants as: […]

[2] = target: T2, extracellular domain of human KLB expressed with C-terminal HA and hexahistidine tags (human, UniProt Q86Z14 1-996); assay: SPR, mAb captured, 37 C
T2 construct: also called hKLB-HA-6His; hKLB-HA-6his
T2 sequence: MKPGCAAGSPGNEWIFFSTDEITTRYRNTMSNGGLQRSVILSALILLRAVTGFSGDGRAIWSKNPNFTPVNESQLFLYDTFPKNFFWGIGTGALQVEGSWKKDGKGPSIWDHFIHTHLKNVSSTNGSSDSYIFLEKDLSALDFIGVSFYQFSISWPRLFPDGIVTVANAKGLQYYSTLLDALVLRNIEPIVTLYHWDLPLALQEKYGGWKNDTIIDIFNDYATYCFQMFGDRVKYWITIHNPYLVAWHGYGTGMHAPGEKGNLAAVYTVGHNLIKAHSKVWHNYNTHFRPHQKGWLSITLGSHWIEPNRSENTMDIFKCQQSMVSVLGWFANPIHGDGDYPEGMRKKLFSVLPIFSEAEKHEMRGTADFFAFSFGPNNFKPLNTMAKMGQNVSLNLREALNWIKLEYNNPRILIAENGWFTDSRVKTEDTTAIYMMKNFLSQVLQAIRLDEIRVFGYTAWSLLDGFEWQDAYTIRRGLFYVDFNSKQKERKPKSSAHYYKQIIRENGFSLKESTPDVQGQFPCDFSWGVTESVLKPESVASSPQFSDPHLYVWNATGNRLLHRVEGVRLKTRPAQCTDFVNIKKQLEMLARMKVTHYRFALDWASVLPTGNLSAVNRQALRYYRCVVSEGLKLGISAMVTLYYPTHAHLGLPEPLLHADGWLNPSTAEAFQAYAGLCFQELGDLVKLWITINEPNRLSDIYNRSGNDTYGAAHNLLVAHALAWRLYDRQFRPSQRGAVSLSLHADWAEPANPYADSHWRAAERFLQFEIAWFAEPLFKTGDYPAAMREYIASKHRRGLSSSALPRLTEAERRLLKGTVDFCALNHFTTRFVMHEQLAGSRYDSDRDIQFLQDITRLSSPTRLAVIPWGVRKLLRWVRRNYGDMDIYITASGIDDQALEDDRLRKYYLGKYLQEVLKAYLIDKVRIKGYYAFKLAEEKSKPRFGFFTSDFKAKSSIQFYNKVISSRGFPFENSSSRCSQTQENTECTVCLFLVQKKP
Procedure: as §1

[3] = target: T1, extracellular domain of human FGFR1c …; assay: SPR, mAb captured, 25 C
Procedure: as §1

[4] = target: T2, extracellular domain of human KLB …; assay: SPR, mAb captured, 25 C
Procedure: as §1

[5] = target: M. fascicularis KLB and human FGFR1c co-expressed on HEK293/MfKLB/hFGFR1c/SRE-Luc cells (M. fascicularis; human, UniProt A0A2K5WB58 1-1044); assay: cell-based or functional assay
[6] = target: T3, human KLB and human FGFR1c co-expressed on HEK293/hKLB/hFGFR1c/SRE-luc cells (human, UniProt Q86Z14 1-1044; P11362 22-822); assay: cell-based or functional assay
[7] = target: T3, human KLB and human FGFR1c co-expressed …; assay: cell-based or functional assay; remark: listed apart in the source

Binder | 180 nM hFGFR1c-V5-6His Bind (RU) [1] [RU] | 20 nM hKLB-HA-6His Bind (RU) [2] [RU] | 180 nM hFGFR1c-V5-6His Bind (RU) [3] [RU] | binding result [3] | 20 nM hKLB-HA-6His Bind (RU) [4] [RU] | EC50, SRE-luc activation without ligand [5] [pM] | IC50, inhibition of 10 nM mfFGF21 [5] [pM] | Maximum Inhibition (%) of 10 nM mfFGF21 [5] [%] | EC50, SRE-luc activation without ligand [6] [pM] | Maximum Activation (%) without ligand [6] [%] | IC50, inhibition of 1 nM hFGF21 [7] [pM] | Maximum Inhibition (%) of 1 nM hFGF21 [7] [%] | Kd [2] [pM] | koff [2] [s⁻¹] | kon [2] [M⁻¹ s⁻¹] | t1/2 [2] [h] | Kd [4] [pM] | koff [4] [s⁻¹] | kon [4] [M⁻¹ s⁻¹] | t1/2 [4] [h] | also measured
B1 | 1 | 5.1 | 0 | no binding (tested: 180 nM) | -0.2 | 46 | 470 | 101 | 210 | 5 | 380 | 101 | – | – | – | – | – | – | – | – | Maximum Activation (%) without ligand [5]: 5%
B2 | 0.3 | -0.5 | 0.1 | no binding (tested: 180 nM) | -0.4 | 180 | 790 | 91 | 300 | 6 | 650 | 91 | – | – | – | – | – | – | – | – | Maximum Activation (%) without ligand [5]: 5%
B3 | 0.4 | 118 | -1.8 | – | 77.6 | – | 30 | 47 | 53 | 1 | 90 | 65 | 206 | 0.000144 | 699000 | 1.34 | 110 | 5.02e-05 | 455000 | 3.83 | –
B4 | 0.7 | 36.8 | -0.7 | – | 21.3 | – | 190 | 32 | 3300 | 0.5 | 33 | 23 | 6200 | 0.00131 | 211000 | 0.147 | 4440 | 0.000449 | 101000 | 0.428 | –
B5 | 0.1 | 372 | 0.2 | no binding (tested: 180 nM) | 63 | – | 89 | 51 | 120 | 1 | 80 | 51 | 401 | 0.000128 | 320000 | 1.5 | 367 | 0.000128 | 350000 | 1.5 | –
B6 | 0.6 | 211 | -1.2 | – | 147 | – | 26 | 46 | 68 | 1 | 67 | 65 | 222 | 0.00018 | 812000 | 1.07 | 218 | 9.8e-05 | 449000 | 1.96 | –
